Experimental data from patent publication US20070031863A1.

Target: CD70 (human) (UniProt P32970)
Experiment: cell-based or functional assay

Chain of CD70 (human) (P32970 whole entry): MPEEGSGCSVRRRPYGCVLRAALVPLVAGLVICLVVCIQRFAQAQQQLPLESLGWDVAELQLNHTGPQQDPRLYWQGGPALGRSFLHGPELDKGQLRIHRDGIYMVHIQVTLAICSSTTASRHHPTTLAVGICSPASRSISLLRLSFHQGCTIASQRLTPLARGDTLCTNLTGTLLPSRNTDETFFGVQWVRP

- IgG synthesis by purified B cells stimulated with LPS (control): 125 µg/mL
Substance: anti-CD70 monoclonal antibody (HNE51) (Dako)
